The text below walks through data of the nanobody polyreactivity screen of Harvey et al. (2022).

The series in a line: yeast display, Sf9 membrane polyspecificity reagent, FACS + sequencing; frameworks hold sequencing errors. In short, it runs like this: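 After 36–48 hours of galactose induction, yeast (Saccharomyces cerevisiae BJ5465) displaying a synthetic nanobody library were stained at 4 °C for 1 hour with 10% biotinylated, detergent-solubilized Sf9 membrane reagent. Streptavidin microbeads enriched the stained cells before FACS sorting into low and high (top ~1%) gates on anti-HA and streptavidin fluorescence. Each clone's polyreactivity label reflects its gate of origin.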
“QFQLVESGGGLVQAGGSLRLSCAASGIIFDYNAMGWYRQAPGKERELVAAITRGGSTYYADSVNGRFTISRDNAKNTVYVQMTSLKPEDTAVYYCKAVLPVHWSWYDYWGQGTQVTVSS”: the “polyreactivity (PSR sort gate)” value is reported as “low polyreactivity”.

On to “QFQLVESGGGLVQAGGSLRLSCAASGIIFNRNVMRWYRQAPAKERELVAAITWGGGRTYYADSVKGRFTISRDNAKNTVYLQMNSLIPVDTAVYFCAARSRGSSRFDYWGQGTQVTVSS”, for which the “polyreactivity (PSR sort gate)” value is on record as “high polyreactivity”.

As to “QFQLVESGGGLVQAGGSLRLSCAASGIIFRYYGMGWYRQAPGKERELVARILWTGGSTYYADSVKGRFTISRDNAKNTVYFQMNSLKPEDTAVYYSAADIWQYSRIANYHPYEYWGQGTQVTVSS”, the “polyreactivity (PSR sort gate)” value is “low polyreactivity”. Regarding “QFQLVESGGGLVQAGGSLRLSCAASGITFVDNAMGWYRQAPGKERELVAAITNSGSTYADSVKGRFTISRDNAKNTVYVQMNSLKPEDTAVYYCAADYYILLTKSDRLFGSWGQGTQVTVSS”, the “polyreactivity (PSR sort gate)” value is “low polyreactivity”. The same measure for “QFQLVESGGGLVQAGGSLRLSCAASGNTFINYAMGWYRQATRKEREVVAAISKRGGSTYYADSVKGRFTISRDNAKNTVYLQMNSLKPEDTAVYYCAARLKTYKEGDYCGQGTQVTVSS”: “high polyreactivity”; for “QFQLVESGGGLVQAGGSLRLSCAASGRIFKTYTMGWYRQAPGKERELVAVITSGGGTYYADSVKGRFTISRDNAKNTVYLQMNSLKPEDTAVYYCAARGMESPYGYWGQGTQVTVSS”: “low polyreactivity”; for “QFQLVESGGGLVQAGGSLRLSCAASGRIFSLNAMGWYRQAPGKESELVAAITSTGGTTYYADSVKGRFTISRDNAKNTVYLQMNSLKPEDTAVYYCAADYYSYAWHGWYYSDHYDYWGQGTQVTVSS”: “low polyreactivity”. Under “QFQLVESGGGLVQAGGSLRLSCAASGRIFTYYAMGWYRQAPGKEWELVAAISTSGGSTYYADSVKGRFTISRDNANNTVYLQMNSLKPEDTAVYYCAKVYPPRYYRDYNYWGQGTQVTVSS” stands “high polyreactivity”. Under “QFQLVESGGGLVQAGGSLRLSCAASGRIFVINAMGWYRKATGIETELVAAISSSGGSTSYADSVKGRFTISRDNAKNTVYLQMNSLKPEDTAVYYCADKPRVRRDDGYYWGQGTLVTVSS” stands “high polyreactivity”; under “QFQLVESGGGLVQAGGSLRLSCAASGRIFYPYAMGWYRQATGKEREFVATIRARGGDSTSYADSVKGRFTISRDNAKNTVYLQMNSLKPEDTGVYYCAALFYTYRWRYYVYHLDYWGHGTQVTVSS”, “low polyreactivity”; under “QFQLVESGGGLVQAGGSLRLSCAASGRIFYYNAMGWDRQAPGKERELVASISTGGGSTYYADSVKGRFTISRDNAKNTVYLQMNSLKTEDTAVYYCAARALTRSVPYGFYYWGQGTQVTVSS”, “high polyreactivity”. Consider “QFQLVESGGGLVQAGGSLRLSCAASGRTFAWNAMGWYRQAPGKERELVAAISYNGGRTYYADSVKGRFTISRDNAKNTVYFQMNSLKPEDTAVYYCAAQRYGYWGQGTQVTVSS”, for which the “polyreactivity (PSR sort gate)” value is on record as “high polyreactivity”. Under “QFQLVESGGGLVQAGGSLRLSCAASGRTFGFYAMGWYRQAPGKERELVASITWRGGRTYYADSVKGRFTISRDNAKNTVYLQMNSLKPEDTAVYYCAAVTFSYDGYDYWGQGTQVTVSS” stands “low polyreactivity”; under “QFQLVESGGGLVQAGGSLRLSCAASGRTFGVYAMGWYRQAPGKERELVAAIRWSGGGTYYADSVKGRFTISRDNAKNTVYLQMNSLKPEDTAVYYCAADSLLVLFDYWGQGTQVTVSA”, “low polyreactivity”; under “QFQLVESGGGLVQAGGSLRLSCAASGRTFRGYAMGWYRQAPGKERELVPAITWRGGSTYYADSVKGRFTISRDNAKNTVYLQMKSLKPEDTAVYYCNTLVWSYLGGYYSRYDYWGQGTQVTVSS”, “high polyreactivity”.

Take “QFQLVESGGGLVQAGGSLRLSCAASGRTFRGYAMGWYRQATGTERELVAAITWRGGSTYYADSVKGRFTISRDNEKNTVYLQMNSLKPEDTAVYYCNTLVWSYLGGYYSRYDYWGQGTQVTVSS”: the “polyreactivity (PSR sort gate)” value is recorded as “high polyreactivity”. Under “QFQLVESGGGLVQAGGSLRLSCAASGRTLYGYAMGWYRQAPGKERELVAVISGRGGSTYYADSVKGRFTISRDNAKNTVYLQMNSLKPEDTAAYFCAAVVHQGLSVRYGYWGQGTQVTVSS” stands “high polyreactivity”. The same measure for “QFQLVESGGGLVQAGGSLRLSCAASGSIFDYYDLGWSRKAPGKERELGAAINWSGGITYYADSVKGRFTISRDNAKNTVYLQMNSLKPEDTGVYYCAADWYQWVYSSSITSFDYWGQGTQVTVSS”: “low polyreactivity”; for “QFQLVESGGGLVQAGGSLRLSCAASGSIFGGYAMGWYRQAPGKEREFVAAITRSGVSTYYADSVKGRFTISRDNEKNTVYLQMNSLKPEDTAVYYCAADQTAWRLRVYLRQYRYEYWGQGTQVTVSS”: “high polyreactivity”; for “QFQLVESGGGLVQAGGSLRLSCAASGSIFGGYAMGWYRQAPGKERELVAAISYRGASTYYADSVKGRFTISRDNAKNTVYLLMNSLKPEDTAVYYCAVAARTRARFLYGYDYWGQGTQVTVSS”: “low polyreactivity”.

For the sequence “QFQLVESGGGLVQAGGSLRLSCAASGSIFKRYAMGWYRQAAGKERELVAAISSRGGNTYYADSVKGRFTISRDNAKNTVYLQMNSLKPEDTAVYYCAAYLWKSKRKLDYWGQGTQVTVSS”, the “polyreactivity (PSR sort gate)” value is “high polyreactivity”. Under “QFQLVESGGGLVQAGGSLRLSCAASGSIFKYYVMGWYRQAPGNERELVATITSDGGTNYADSVKGRFTISRDNAKNTVYLQMNSLKPEDTAVYYCNAASRRGSRKQAKYDYWGQGTQVTVSS” stands “low polyreactivity”; under “QFQLVESGGGLVQAGGSLRLSCAASGSIFQSYAMVWYRQAPGKERELVAAITRSGGRTYYADSVKGRFTISRDNAKNTVYLQMNSLKPEDTAVYFCAAFGWGYGYWGQGTQVTVSS”, “high polyreactivity”; under “QFQLVESGGGLVQAGGSLRLSCAASGSTFGVYAMGWYRQAPGKERELVATINSGGSTNYADSVKGRFTISRDNAKNTVYLQMNSLKPEDTAVYYCAAGPFWQDFYVYEYDYWGQGTQVTVSS”, “low polyreactivity”. The same measure for “QFQLVESGGGLVQAGGSLRLSCAASGSTFNYNAMGWYRQAPGIERELVAAISSSAGSTYYADSVKGRFTISRDNAKNTVYLQMNILKPEDTAVYYCANGGSSRVRTEGDYWGQGTQVTVSS”: “low polyreactivity”; for “QFQLVESGGGLVQAGGSLRLSCAASGSTFVYNAMGWDRHAPGKERELVAAISRGGGITYYADSVKGRFTISRDKAKNSVYFQMHSLKPEDTAVYYCQYLSRGLNTYRSSQGDDDYWGHGTQVTVSS”: “high polyreactivity”; for “QFQLVESGGGLVQAGGSLRLSCAASRRTFTYYDMGWYRQAPGNEGELVSAISRRGGSTYYADSVKGRFTISRDNAKNTVYFQMNSLKPEDTAVYYCAAEVRLFSYTYSFFRYEYWGQGTHVTVSS”: “high polyreactivity”. The same measure for “QFQLVESGGGLVQAGGSLRLSCAAYGSIFMYYAMGWYIQAPGKERELVAAIRRGGNTNYADSVKGRFTISRDNAKNTVYLQMNSLKPEDTAVYYCAAAQYSRYSRVPNYYAGTYYYWGQGTQVTVSS”: “low polyreactivity”; for “QFQLVESGGGLVQAGGSLRLSCESSGFTFYKYAIGSYRKAPGKERELVAAISRRGTSTYYADSVKGRFTISRDNAKNTVYLQMNSLNPEDTAVYYCNRDVSLSAFDYWGQGTQVTVSS”: “high polyreactivity”.

Consider “QFQLVESGGGLVQAGGSLRLSCPASGRIFYYYSMGWYRQAPGKEREFVAAITGRGGSTYYADSVKGRFTISRDNAKYTVYLQMNSLKPEDTADYYCNAGQYFEYYGWYSRYGYWGQGTQVTVSS”, for which the “polyreactivity (PSR sort gate)” value was “low polyreactivity”.
